Test results reported in the supplement of paper PMC9876800.

Tested on: peptide library, one residue held at a place counted from the S/T acceptor
Assay: relative phosphorylation of the sub-library (ratio to the mean residue at this position); higher = residue favoured
Procedure, shortened: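 Human or orthologue kinase constructs, purified and recombinant, were incubated under kinase-specific conditions in 384-well plates with biotinylated degenerate peptide sub-libraries. Each sub-library fixed one residue at one position around a central Ser/Thr. Incubations lasted 90 min with peptides at 50 μM and 50 μM ATP spiked with γ-32P-ATP, after which spots on streptavidin membranes were phosphorimaged and quantified by densitometry. Relative sub-library phosphorylation is a ratio to the mean residue at that position.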

Chain of PDPK1, construct: Full length, human (O15530 whole entry, looked up): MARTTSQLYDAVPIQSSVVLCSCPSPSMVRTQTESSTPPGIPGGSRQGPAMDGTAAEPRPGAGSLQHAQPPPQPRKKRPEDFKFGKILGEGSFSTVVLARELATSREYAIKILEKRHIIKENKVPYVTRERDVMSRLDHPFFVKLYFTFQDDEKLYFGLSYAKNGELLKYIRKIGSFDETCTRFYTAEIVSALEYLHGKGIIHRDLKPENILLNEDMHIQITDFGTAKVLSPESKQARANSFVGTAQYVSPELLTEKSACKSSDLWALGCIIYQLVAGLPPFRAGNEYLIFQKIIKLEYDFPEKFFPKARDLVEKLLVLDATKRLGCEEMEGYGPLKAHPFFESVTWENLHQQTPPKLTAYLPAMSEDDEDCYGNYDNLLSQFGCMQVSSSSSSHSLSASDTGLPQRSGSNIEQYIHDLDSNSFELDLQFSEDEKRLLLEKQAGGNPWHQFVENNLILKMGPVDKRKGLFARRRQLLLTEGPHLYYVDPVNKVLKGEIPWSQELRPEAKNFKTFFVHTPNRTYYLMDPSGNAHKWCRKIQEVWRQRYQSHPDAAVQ
Chain of NEK2, construct: Full length, human (P51955 whole entry, looked up): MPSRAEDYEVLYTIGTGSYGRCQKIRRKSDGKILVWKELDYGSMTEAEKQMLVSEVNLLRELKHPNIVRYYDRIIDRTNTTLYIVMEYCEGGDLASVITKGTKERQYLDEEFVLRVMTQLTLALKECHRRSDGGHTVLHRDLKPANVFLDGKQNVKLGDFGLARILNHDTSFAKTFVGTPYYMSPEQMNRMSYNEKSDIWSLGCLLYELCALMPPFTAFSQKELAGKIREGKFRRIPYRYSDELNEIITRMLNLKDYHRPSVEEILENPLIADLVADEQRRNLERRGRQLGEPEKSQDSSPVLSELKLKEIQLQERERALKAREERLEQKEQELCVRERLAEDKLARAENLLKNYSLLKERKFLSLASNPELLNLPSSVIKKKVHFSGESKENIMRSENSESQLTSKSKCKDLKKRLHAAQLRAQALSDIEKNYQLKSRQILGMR
Chain of NEK3, construct: Full length, human (P51956 whole entry, looked up): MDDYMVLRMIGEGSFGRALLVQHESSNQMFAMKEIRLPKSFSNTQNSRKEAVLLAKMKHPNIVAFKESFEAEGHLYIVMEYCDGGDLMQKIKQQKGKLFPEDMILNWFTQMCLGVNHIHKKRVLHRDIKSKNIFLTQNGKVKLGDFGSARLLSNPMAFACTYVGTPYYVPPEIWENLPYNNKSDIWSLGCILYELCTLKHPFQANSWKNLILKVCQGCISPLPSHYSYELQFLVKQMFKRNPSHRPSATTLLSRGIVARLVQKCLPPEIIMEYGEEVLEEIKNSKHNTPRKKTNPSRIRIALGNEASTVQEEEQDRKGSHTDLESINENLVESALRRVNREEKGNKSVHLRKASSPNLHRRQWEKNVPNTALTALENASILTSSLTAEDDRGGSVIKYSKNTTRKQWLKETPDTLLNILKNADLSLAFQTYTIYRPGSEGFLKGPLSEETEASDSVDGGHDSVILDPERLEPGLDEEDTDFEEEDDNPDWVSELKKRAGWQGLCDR

NEK2, construct: Full length, human (from UniProt P51955)
relative phosphorylation
Conditions	at +1	at +2	at +3	at +4	at -1	at -2	at -3	at -4	at -5
A fixed	0.655	1.03	0.897	0.958	1.25	1.5	1.09	1.06	1.3
D fixed	0.189	0.318	0.782	0.806	0.644	0.552	0.307	0.772	0.938
E fixed	0.203	0.195	0.916	0.811	0.81	0.438	0.301	0.73	0.694
F fixed	1.19	0.835	0.878	0.906	0.783	1.2	2.37	1.2	1.3
G fixed	0.656	0.834	1.06	1.12	0.959	1.29	1.23	1.29	1.14
H fixed	1.03	1.43	1.08	1.04	1.03	1.16	1.07	1.11	1
I fixed	1.5	0.624	0.864	0.775	0.561	0.636	0.466	0.818	0.767
K fixed	0.846	1.69	1.18	1.4	1.53	1.42	0.638	1.07	1.19
L fixed	1.79	0.638	1.06	0.949	0.917	0.799	1.89	1.04	0.828
M fixed	2.1	0.873	0.899	0.875	1.4	1.11	1.77	0.964	0.862
N fixed	0.85	0.888	1.02	0.964	1.04	0.989	0.733	0.931	0.884
P fixed	0.151	0.771	1.08	1.14	0.23	0.405	0.965	0.963	1.04
Q fixed	1.26	0.696	0.874	1.06	1.21	0.852	0.661	0.881	0.81
R fixed	1.26	3.71	1.5	1.45	1.98	1.75	0.77	0.902	1.18
V fixed	1.18	0.71	0.875	0.745	0.743	0.65	0.48	0.828	0.934
W fixed	0.983	0.748	0.916	1.14	0.85	1.06	1.11	1.44	1.1
Y fixed	1.17	1.01	1.13	0.874	1.08	1.19	1.15	1.01	1.03
pThr fixed	0.425	0.383	0.557	0.688	0.278	0.449	0.545	0.747	0.658
pTyr fixed	0.547	0.275	0.758	0.62	0.697	0.525	0.752	0.642	0.66

NEK3, construct: Full length, human (from UniProt P51956)
relative phosphorylation
Conditions	at +1	at +2	at +3	at +4	at -1	at -2	at -3	at -4	at -5
A fixed	0.842	0.788	1.09	0.919	1.02	0.977	1.09	1.16	1.06
D fixed	0.145	0.299	0.257	0.346	0.588	0.551	0.343	0.456	0.653
E fixed	0.12	0.323	0.219	0.321	0.496	0.632	0.36	0.511	0.632
F fixed	1.67	0.786	1.1	0.796	0.841	1.37	1.98	1.43	1.05
G fixed	0.687	1.41	1.42	1.64	1.33	1.45	1.51	1.28	1.25
H fixed	1.13	1.45	1.07	1.35	1.45	1.21	1.11	1.03	1.17
I fixed	1.65	0.967	1.12	0.984	0.629	0.749	0.642	0.798	0.97
K fixed	0.579	1.4	1.07	1.24	1.07	0.866	0.478	1.02	1.1
L fixed	1.29	0.674	1.22	0.841	0.865	1.19	1.65	1.09	0.959
M fixed	1.94	1.09	1.05	0.982	1.59	1.42	1.87	1.2	1.27
N fixed	0.416	1.21	0.721	1.05	1.03	0.903	0.657	0.848	1.02
P fixed	0.351	0.719	1.2	1.38	0.204	0.259	0.495	0.597	0.821
Q fixed	0.719	0.826	0.873	0.769	0.846	0.826	0.561	0.867	0.74
R fixed	0.807	2.17	1.28	1.6	2	0.822	1.05	1.05	1.54
V fixed	1.66	0.904	1.01	0.768	0.739	0.734	0.486	0.823	0.7
W fixed	1.56	0.774	1.27	1.08	0.938	1.49	1.42	1.79	0.993
Y fixed	1.42	1.21	1.05	0.958	1.36	1.55	1.28	1.05	1.07
pThr fixed	0.188	0.183	0.26	0.166	0.146	0.255	0.386	0.57	0.612
pTyr fixed	0.165	0.278	0.254	0.254	0.414	0.612	0.399	0.446	0.642

PDPK1, construct: Full length, human (from UniProt O15530)
relative phosphorylation
Conditions	at +1	at +2	at +3	at +4	at -1	at -2	at -3	at -4	at -5
A fixed	0.609	1.18	0.927	1.02	0.812	1.48	1	1.13	1.12
D fixed	0.37	0.618	0.647	0.802	0.519	0.523	0.571	0.935	1.25
E fixed	0.402	0.537	0.665	0.815	0.518	0.561	0.615	0.927	1.04
F fixed	4.59	1.23	1.31	0.991	1.22	1.33	0.794	0.958	0.875
G fixed	0.638	0.747	1.19	1.13	1.43	1.16	1.04	1.27	1.21
H fixed	0.602	1.26	1.04	1.01	0.954	1	0.863	0.982	0.919
I fixed	1.15	1.16	1.07	0.955	0.673	0.733	0.789	0.909	0.973
K fixed	0.798	0.985	0.977	1.01	1.32	1.18	1.18	1.06	0.956
L fixed	1.16	1.01	0.967	1	0.958	0.974	0.779	0.863	0.826
M fixed	1.89	1.13	1.01	1.02	1.22	0.866	0.775	0.846	0.859
N fixed	0.515	0.759	0.822	0.822	1.11	0.931	0.754	0.866	0.864
P fixed	0.556	0.755	0.774	1.39	1.03	0.834	1	1.11	1.14
Q fixed	0.622	0.722	0.77	0.871	0.847	0.94	0.843	0.89	0.788
R fixed	0.875	1.18	1.29	1.21	1.61	1.49	3.72	1.18	1.09
V fixed	0.664	1.21	1.02	0.868	0.661	0.71	0.762	1.07	1.19
W fixed	0.709	0.98	1.28	1.13	0.873	0.987	0.749	0.994	0.919
Y fixed	0.848	1.54	1.25	0.947	1.24	1.3	0.761	1.02	0.99
pThr fixed	0.497	0.664	0.71	0.809	0.604	0.738	0.854	1.12	1.62
pTyr fixed	0.432	0.616	0.903	0.852	0.738	0.821	1.13	2.5	2.94
